Experimental data from the nanobody polyreactivity screen of Harvey et al. (2022).

Experiment: yeast display, Sf9 membrane polyspecificity reagent, FACS + sequencing; frameworks hold sequencing errors
Outline: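 Sorting gates, low and high (top ~1%), were placed on anti-HA fluorescence to track expression and on streptavidin fluorescence to track reagent binding. A clone's polyreactivity label is taken from the gate it came out of. The reagent was 10% biotinylated, detergent-solubilized Sf9 membrane, applied for 1 hour at 4 °C to galactose-induced yeast display cells.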
In the case of “QVQLVESGGGLVQAGGSLRLSCAASGRTFYSYAMGWYRPAPGQERELVARITWSGGTYYADSVKGRFTISRDNAKTTVYLQMNSLKPEDTAVYYCNKYRPYGRIYHLAYGRDYWGQGTQVTVSS”, the “polyreactivity (PSR sort gate)” value is reported as “high polyreactivity”.
With “QDQHVESGGGLVQAGGSQRLSCAAYGFIFWIYAMGWYRQAPGKEREFVAVITYRGDTTYYADSVKGRFTISRDNAKNTVFLQMNSMKPEDTAVYYCAAYTVQKYGYWGQGTQVTVSS” the “polyreactivity (PSR sort gate)” value was “low polyreactivity”.
For “QVQLVESGGGLVHAGGSLRLSCAASGSIFYRYAKGWYIQAPGKERDLVAAITYSGGRTYYADSVKGRFTISRDNAKNSVYLKMNILKPEDTAVYYCAAEKQSYGSPKGYDYWGQGTQVTVSS”, the “polyreactivity (PSR sort gate)” value was “low polyreactivity”.
For “QVQLVESGGGLVQAGGSLRLSCAASGFIVHTNTMGWYIQAPGKERELVAAMSSGGRTNYADSVKGRFTISRDNAKNTVYLQMNSLKPEDTAVYYCAADWHSWRWGYYYWGQGTQVTVSS”, the “polyreactivity (PSR sort gate)” value was “low polyreactivity”.
For “QVQLGESGGGLVQAGGSLRLSCAASGITFWSYAMGLYRQAPGKERELVATIRWSGGGTYYADSVKGRFTISRDNAKNTVYLQMNSLKPEDTAVYYCNADDYGHPPYDYWGQGTQVTVSS”, the “polyreactivity (PSR sort gate)” value was “high polyreactivity”.
In the case of “QVHLVESGGGLVQAGGSLRLSCAASGITIWNNAMGWYRQAPGKERELVATISSNGGRTYYADSVKGRFTISLDTAKNTVYFQMNSLKPEDTAVYYCNAARRAYGYNYWGQGTQVTVSS”, the “polyreactivity (PSR sort gate)” value is reported as “low polyreactivity”.
With “QVQIVESGGGLVQAGGSLRLSCAASGSILYYYAMGWYRQAPGKERELVATITSGGTTNYADSVKGRFTISRDNAKNTFYLQMNRLKPEDTAVYYCATEEVYGQGNYWGQGTQVTVSS” the “polyreactivity (PSR sort gate)” value was “low polyreactivity”.
In the case of “QVQLVESGGGLVQAGGILRLSCAASGSKIGYYAMVWYRQAPGKERELVAAISAGDRTYYADSVKGRFTISRDNAKNTVYLQMNSLKPEDTAVYYCAAASYYQSYRYGYWGQGTQVTVSS”, the “polyreactivity (PSR sort gate)” value is reported as “high polyreactivity”.
In the case of “QVQLVESGGGLVQAGGSLRLSCAASGLIFYANVMGWYRQAPGKERELVAAISRSGTSTYYADSVKGRFTISRDNAKNTVYFQMNSLKPEDTAVYYCAADFVKRQANRQFDYWGQGTQVTVSS”, the “polyreactivity (PSR sort gate)” value is reported as “high polyreactivity”.
With “QVQLVESGGGLVQAGGSLRLSCAASGRIFTGYAMGWYRQAPGKEREFVAAITGRGGSTYYADSVKGRFTISRDNAKNTVYLQMNSLKPEDTAVYYCNALPRSPWYYRGDYWGQGTQVTVSS” the “polyreactivity (PSR sort gate)” value was “high polyreactivity”.
For “QVQLVESGGGLVQAGGSLRLSCAASGRIFYFYAMGWYRQAPGKERELVAAISTSGGSTYYPDSVKGRFTISRDNAKNTVYLQMNSLKQEDTAVYYCAARFRYYGSEYDYWGQGTQVTVSS”, the “polyreactivity (PSR sort gate)” value was “low polyreactivity”.
With “QVQLVESGGGLVQAGGSLRLSCAASGFIFWSYAMGWYRQAPGKERELVAAISWSGGRTYYADSVKGRFTISRDNAKNTVYLQMNSLKPEDTAVYYCAAVKRYSSQYPALDYWGQGTQVTVSS” the “polyreactivity (PSR sort gate)” value was “high polyreactivity”.
In the case of “QVQLVESGGGLVQAGGSLRLSCAASGSIFGTNAMGRYRPAPGKERELVAAISWSGTSTYYADSVKGRFTISRDNAKNTVYLQMNSLKPEDTAVYYCAKRSGYSRGFYYWGQGTQVTVSS”, the “polyreactivity (PSR sort gate)” value is reported as “high polyreactivity”.
For “QVQLVESGGGLVQAGGSLRLSCAPSGSIFLQYTMGWYRQAPGKERELVAAITESDGSTYYADSVKGRFTISRDNAKNTVYLQMNSLKPEDTAVYYCAADVVYFKYWDKYDYWGQGTQVTVSS”, the “polyreactivity (PSR sort gate)” value was “low polyreactivity”.
For “QVQLVESGGGLVQAGGSLRLSCAASGFIFDAYAMGWYRQAPGKERELVAAITRGNTYYADSVKGRFTISRDNAKNTVYLQMNSLKPEDTAVYYCAARYWQSYRSQVTHSSTLDYWGQGTQVTVSS”, the “polyreactivity (PSR sort gate)” value was “low polyreactivity”.
For “QVQLVESGGGLVQAGGSLRLSCAASGFIFRRYVMGWYRQAPGKERELVAAISYGGGSTYYADSVKGRFTISRDNAKITVYLQMNSLKPEDTAVYYCAKLYYRHLYEYDYWGQGTQVTVSS”, the “polyreactivity (PSR sort gate)” value was “high polyreactivity”.
In the case of “QVQLVESGGGLVQAGGSLRLSCAASGRTFFDYVMGWYRQAPGKERELVAAISTSGTSTYYADSVKGRFTISRDNAKNTVYLHMNSLKPEDTAVYYCAAGNYLYSYGYGYWGQGTQVTVSS”, the “polyreactivity (PSR sort gate)” value is reported as “high polyreactivity”.
With “QVQLVESGGGLVQAGGSLRLSSAASGYIFTYYTMGCSRQAPGKERELVAAITYSGSRTRYADSVKGRFTISRDNAKNTVYLQMNSLKPEDNAVYYCAAVYRLKSGGEWRDSQFGYWGQGTQVTVSS” the “polyreactivity (PSR sort gate)” value was “high polyreactivity”.
In the case of “QVQLVESGGGLVQAGGSLRLSCAASGSIFDYNAMGWYRQAPGKERELVASIRWSGGRTYYADSVKGRFTISRDNAKNTVYLQMNSLKPEDTAVYYCNKGLFSTGNIPYYLIVYLEYNYWGQGTQVTVSS”, the “polyreactivity (PSR sort gate)” value is reported as “low polyreactivity”.
For “QVQLVESGGGLVQAGGSLRLSCAASGRTLDVNAMGWYRQAPGKERELVAAISYSGGITYYADSVKGRFTISRDNAKNTVYLQMNSLKPEDTAVYYCAVVGGYPSYTVDYWGQGTQVTVSS”, the “polyreactivity (PSR sort gate)” value was “low polyreactivity”.
With “QVQLVESGGGLVQAGGRLRLSCAASGLIFDSYAMGWYRQAPGKERELVAAITYTGGSTYYADSVKGRFTISRDNAKNTVYLQMNSLKPEDTAVYYCAARSQSDRYGYWGQGTQVTVSS” the “polyreactivity (PSR sort gate)” value was “high polyreactivity”.
In the case of “QVQLVESGGGLVQAGGSLRLSCAASGSTLATYTMGWYRQAPGKERELVAAISFGGSTYYADSVKGRFTISRDNAKNTVYLQMNRLKPEDTAVYYCAVYGDSYWGAYYYSDGYWGQGTQVTVSS”, the “polyreactivity (PSR sort gate)” value is reported as “low polyreactivity”.
With “QVQLVDSGGGLVQAGCSLRLSCAASGRTFSNYAMGWYRQAPGKDRELVAAISWRGGSTYYADSVKGRFTISRDNAKNTVYLQMTSLKPEDTAVYYCAALPRYALGEDYWGQGTQVTVSS” the “polyreactivity (PSR sort gate)” value was “high polyreactivity”.
For “QVQLVESGGGLVQAGGSLRLSCAASGRIFRGYAMGWYRQAPGKERELVATINASGGTTYYADSVKGRFTISRDNAKNTVYLQMNSLKPEDTAVYYCNARYRRFFSGYGYWGQGTQVTVSS”, the “polyreactivity (PSR sort gate)” value was “high polyreactivity”.
In the case of “QVQLVESGGGLVQAGGGLRLSCAASGITFVDYDMGWYRQAPGKERELDAAITTGSSTYYADSVKGRFTISRDNAKNTVYLQMNSLKPEDTAVYYCARDFEYDYYQQWSYGYWGQGTQVTVSS”, the “polyreactivity (PSR sort gate)” value is reported as “low polyreactivity”.
With “QVQLVESGGGLVQAGGSLRLSCAASGRTFYSYAMGWYRQAPGKERELVAAISYTGASTFYADSVKGRFTISRDNAKNTVYLQMNSLKPEDTAVYYCAGRKVRFGVDYWGQGTQVTVSS” the “polyreactivity (PSR sort gate)” value was “high polyreactivity”.
In the case of “QVQLVESGGGLVQAGGSLRLSCAASGITFTRYTKGWYRQAPGKERELVAAIRGSGGSTYYADSVKGRFTISRDNAKNTVYLEMNSLKAEDTAVYFCAADKYLYGRLTRNFHYYYWGLGTQVTVSS”, the “polyreactivity (PSR sort gate)” value is reported as “low polyreactivity”.
For “QVQLVESGGGLVQAGGSLRLSCAASGSIFAWYGMGWYRQAPGKERELVAAITSTGSTYYADSVKGRFTISRDNAKNTVYLQMNSLKPEDTAVYYCNAYSVYLWRPGDYWGQGTQVTVSS”, the “polyreactivity (PSR sort gate)” value was “low polyreactivity”.
With “QVQLVESGGGLVQAGGSLRLSCADSGRIFVYYAMGWYRQAPGKERELVASISYSGASTYYADSVKGRFTISRDNAKNTVYLQMNSLKPEDTAVYYCARDVWNYWDGVFQYYSYDFDYWGQGTQVTVSS” the “polyreactivity (PSR sort gate)” value was “low polyreactivity”.
With “QVQLVESGGGLVQAGGSLRLSCAPSGYIPYWYAMGWYRQAPGKERELVAAIDWSGASTNYADSVKGRFTISRDNAKNTVYLQMNSLKPEDTAVYYCAADAVSPDYFVWGDYWGQGTQVTVSS” the “polyreactivity (PSR sort gate)” value was “high polyreactivity”.
For “QVQIVESGGGLVQAGGSLRLSCAASGSIFPAYAMGWYRQAPGKEREFVAAISGTGGITYYADSVKGRFTISRDNAKNTVYLQMNSLKPEDTAVYFCAAPVYNRDKHDYDYWGQGTQVTVSS”, the “polyreactivity (PSR sort gate)” value was “low polyreactivity”.
In the case of “QVQLVESGGGLVQAGGSLRLSCAASGRTFPVYAMGWYRQAPGKERELVAAIRARSVRTYYADSVKGRFTISRDNAKNTVYLQMNSLKPEDTAVYYCAAYYLNPGMDYWGQGTQVTVSS”, the “polyreactivity (PSR sort gate)” value is reported as “high polyreactivity”.
For “QVQIVESGGGLVQAGGSLRLSCAASGRIFDYYAMGWYRQAPGKERELVADITSGGSTYYADSVKGRFTISRDNAKNTVYLQMNSLKPEDTAVYYCNADGPGSYIWYYFVYTTPEYDYWGQGTQVTVSS”, the “polyreactivity (PSR sort gate)” value was “low polyreactivity”.
In the case of “QVQLVESGGGLVQAGGSLRLSCAASGRTIYYYARGWYRQAPGKERELVAAITLRGGSTYYADSVKGRFTISRDNAKKTVYLQMNSLKPEDTAVYYCAKESTVRRYDYWGQGTQVTVSS”, the “polyreactivity (PSR sort gate)” value is reported as “low polyreactivity”.
In the case of “QVQLVESGGGLDQAGGSLRLSCAASGFIFYSNAMGWYRQAPGKERELVAAISRGGGSTYYADSVKGRFTISRDNAKNTVYLQLNSLKPEDTAVYYCAKRRLSPQDDYWGQGTQVTLSS”, the “polyreactivity (PSR sort gate)” value is reported as “high polyreactivity”.
In the case of “QVQLVESGGGLVHAGGSLRLSCAASGTISAYAMGWYRPAPGKERELVAAISYSGGSTYYADSVKGRFTISRDNAKKTVYLQMNSLKPEDTAVYYCNARARWYYPYKTYYYWGQGTQVTVSS”, the “polyreactivity (PSR sort gate)” value is reported as “high polyreactivity”.
For “QVQLVESGGGLVQAGGSLRLSCAASGFTFRDYSMGWYRQAPGKERELVAAMSFSGGRTFYADSVKGRFTISRDNGKNTVYLQMNSLKPEDTAVYFCNAQYLTSRYYPRRNLDYWGQGTQVTVSS”, the “polyreactivity (PSR sort gate)” value was “high polyreactivity”.
In the case of “QVQLVESGGGFVQAGGSLRLSCAASGSTFLVYAMGWYRQAPGKERELVAVIDTGASTNYADSVKGRFTISRDNAKNTVYLQMNSLKPEDTAVYYCAAGFSYFTSVLSLDRYYYWGQGTQVTVSS”, the “polyreactivity (PSR sort gate)” value is reported as “low polyreactivity”.
With “QVQLVESGGGLVQAGGSLRLICAASGSTFYPYDMGWYRQSPGKEWELVATISSGVSTNYADSVKGRFTISRDNAKNTVYLQMNSLKPEDTAVYYCAVDYFIGDDDYWGQGTLVTVSS” the “polyreactivity (PSR sort gate)” value was “low polyreactivity”.
For “QVQLVESGGGLVQAGGSLRLSCAASGRTFKYYAMGWYRQAPGKERELVATISYNGASTYYADSVKGRFTISRDNAKNTVYLQMNSLKPEDTAVYYCAAGYLWRGRLGYWGQGTQVTVSS”, the “polyreactivity (PSR sort gate)” value was “high polyreactivity”.
With “QVQLVESGGGLVQAGGSLRLSCAASGSTFVRNAMGWYRQAPGKERELVAAITRGGRTYYADSVKGRFTISRDNAKNTVYLQLNSLKPEVTAVYYCAKPSSPSLGGVSDRNYWGQGTQVTVSS” the “polyreactivity (PSR sort gate)” value was “low polyreactivity”.
In the case of “QVQLVESGGGLVQAGGSLRLSCAASGSIFHKNAMGWYIQAPGKERELVARITSSSGSTYYADSVKGRFTISRDNAKNTVYLQMNSLKPEDTAVYYCNASPTTTPNFWRYDYWGQGTQVTVSS”, the “polyreactivity (PSR sort gate)” value is reported as “high polyreactivity”.
In the case of “QVQLVESGGGLVQAGGSLRLSCAASGITFGRNTMGWYRQAPGKERELVAAIDSGGNTYADSVKGRFTISRDNAKNTVYLQMNSLKPEDTAVYYCDVDGGEFSSYGYWGQGTLVTVSS”, the “polyreactivity (PSR sort gate)” value is reported as “low polyreactivity”.
